Measured values published in the nanobody polyreactivity screen of Harvey et al. (2022).

Assay: yeast display, Sf9 membrane polyspecificity reagent, FACS + sequencing; frameworks hold sequencing errors
In short: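 Nanobodies from a synthetic yeast display library (Saccharomyces cerevisiae BJ5465), induced 36–48 hours with galactose, were stained 1 hour at 4 °C with 10% biotinylated, detergent-solubilized Sf9 membrane reagent, enriched on streptavidin microbeads, then FACS-sorted. Anti-HA (expression) and streptavidin (reagent binding) fluorescence set low and high (top ~1%) gates. Polyreactivity labels come from the gate of origin. Genes were colony-PCR amplified, MiSeq 2 × 250 sequenced and filtered by CDR length.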

Sequence | polyreactivity (PSR sort gate)
QVQLVESGGGLVQAGGSLRLRCAASGRTFDTYAMGWYRQAPWKERELVASITYRGGSTYYADSVKGRFTISRDNGKNTVYLQLNSLKPVDTAVYYCNAKVKRNKRWRGYWGQGTQVTVSS | high polyreactivity
QVQLVESGGGLVQAGGSLRLRCAASGRTFLTNTLGWYRQAPGKERELVAAISSGGSTKYADSVKGRFTISRDNAKNTVYLQMNSLKTEDTAVYYCAATGWRYGYKYYYWGQGTQVTVSS | high polyreactivity
QVQLVESGGGLVQAGGSLRLRCAASGRTFWWNAMGWYRQAPGKERELVAGTYSRGGGTYYADSVKGRFTISRDNAKNRVYLQMNRLKAEDTAVYYCASQAPVYRYYYWGQGTQVTVSS | high polyreactivity
QVQLVESGGGLVQAGGSLRLRCAASGRTFYYNVMGWYRQAPGKERELVATITSGASTNYADSVKGRFTISRDNAKNTVYLQMNSLKPEDTAVYYCNTEYYPRWYGPYSYYDFDSWGQGTEVTVSS | low polyreactivity
QVQLVESGGGLVQAGGSLRLRCAASGRTLGRYAMGWYRQAPGKDRELVAAIRIGGGSTYYADSVKGRFTISRDNAKNTVYLQMISLKPEDTAVYYCATRGYINGAGFGYWGQGTQVTVSS | high polyreactivity
QVQLVESGGGLVQAGGSLRLRCAASGSIFFYYVMGWYRQAPGKEREFVAAITYSGGSTYYADSVKGRFTISRDNAKNTVYFQMNSMQQEDTAVYYCAADYSPSIGGFWFGGRHYGYWGQGTQVTVSS | low polyreactivity
QVQLVESGGGLVQAGGSLRLRCAASGSIFPWYAMGWYRQAPGKERELVAAITISGGSTHYADSVKGRFTISRDNAKNTVYLQMNCLKPEDTAVYYCATPRYPSYDYWGQGTQVTVSS | low polyreactivity
QVQLVESGGGLVQAGGSLRLRCAASGSNFNPYAMGWYRQAPGKERELVAAINSRGGSTYYADSVKGRFTISRDNANNTVYLQMNSLKPQDTAVYYCAARTRRRTSAYEYWGQGTQVTVSS | high polyreactivity
QVQLVESGGGLVQAGGSLRLRCAASGSTFHIYAMGWYRQAPGKERELVAAISKGGGNTYYADSVKGRFTISRDNAKNPVYLQLNSLKPEDTAGYYCAAVPTRYRSYSYTYGGYNYWGQGTQVTVSS | high polyreactivity
QVQLVESGGGLVQAGGSLRLRCAASGSTFRNAMGWYRQAPGKERELVAAISYSGGRTYYADSVKGRFTISRDNAKNTVYLQMNSLKPEDTAVYYCASPGVSWSTRSYYYWGQGTQVTVSS | high polyreactivity
QVQLVESGGGLVQAGGSLRLRCAASGSTFSIYAMGWYRQATGKQRELVAAISSSGGSTYYADSVKGRFTISRDTAKNTGYLQMNSLKPEDTAFYYCNKRKYHVRYDYWGQGTQVTVSS | low polyreactivity
QVQLVESGGGLVQAGGSLRLRCAASGSTSPNAMGWYRQAPGKERELVAAIWSGGTYYADSVKGRFTISRDNAKNTVYLQMNSLKPEDTAVYYCAVTGVYRGFRYGYWGQGTQVTVSS | low polyreactivity
QVQLVESGGGLVQAGGSLRLRCAASGTTFRLYAMGWYRQAPGKERELVAAISWIGGRTYYADSVKGRFTISRDNAKNTVYLQMNSLKPEDTAVYYCAATCAYRVARGYDYWGQGTQVTVSS | high polyreactivity
QVQLVESGGGLVQAGGSLRLRCAATGRTFGWYAMGWYRQAPGKEREFVATITRSGGRTYYADSVKGRFTISRDNAKNTVYFQMNSLKPEDTAVYYCAADTNRYRYSYDYWGQGTQVTVSS | high polyreactivity
QVQLVESGGGLVQAGGSLRLRCAAYGSIFDKNSMGWYRQAPGKERELVAAITRSGRSTYYADSVKGRFTISRDNAKNTVYLQMNSLKPEDTALYYCAADVWPRWGLYYWGQGTQVTVTS | high polyreactivity
QVQLVESGGGLVQAGGSLRLRCASSGITFTLNAMGWYRQAPGKERELVAAISGSGGRTYYADSVKGRFTISRDNAKNTVYLQMNSLKPEDTAVYYCAAAVLDRYTRYIWYIYDYWGQGTQVTVSS | high polyreactivity
QVQLVESGGGLVQAGGSLRLRCASSGRIFFGYAMGWYRQAPGKERELVASISRGGSTNYADSVKGRFTISRDNAKNTVYLQMHSLKPEDTAVYYCAASRYLQRYGMYYWGQGTQVTVSS | high polyreactivity
QVQLVESGGGLVQAGGSLRLRCASSGRTFQYYAMGWYRQAPGKEMELVAAISWSGGSTYYADSVKGRFTISRDNAKNTVYLQMNSLKPEDTAVYYCAAVVGRNGTRSYGYWGQGTQVTVSS | high polyreactivity
QVQLVESGGGLVQAGGSLRLRCGASGSTFGIYAMGWYRQAPGKERELVAAITLRTDSTYYADSVKGRFTISRDNAKNTVYLQMNSLKPEDTAVYYCARRYRYGYDYWGQGTQVSVSS | low polyreactivity
QVQLVESGGGLVQAGGSLRLRCPASGRIIGSYTMGSYRQAPGKERELVAAISFSGARTRYADSVKGRFTISRDNAKNTVYFQMNSLKAEDTAVYYCAARFTGGKYDYWGLGTQVTVSS | high polyreactivity
QVQLVESGGGLVQAGGSLRLRGAASGSTFGPNAMGWYRPAPGKEREFVASISWRGGRTYYADSVKGRFTISRDNAKNTVYLQMNSLNPEDTAVYYCAAVSYPAVYGFDYWGQGTQVTVSS | high polyreactivity
QVQLVESGGGLVQAGGSLRLRSAASGSIIPEYVMGWYRQAPGKERELVAAISWSGGSTYYADSVKGRFTISRDNAKNTDYLQMNSLKPEDTAVYYCNRVPSWRIDYDYWGQGTQVTVSS | low polyreactivity

Sequence | polyreactivity (PSR sort gate)
QVQLVESGGGLVQAGGSLRLSCAAAGFIFRYYAMGWYRPAPGKVRELVAAITNSGVSTYYADSVKGRFTISRDNAKNTVYLQMNRLKPEDTAVYYCAATYRTRTSQYDYWGQGTQVTVSS | high polyreactivity
QVQLVESGGGLVQAGGSLRLSCAAAGITFTVYAMGWYRPAPGKERELVAAISQSGGSTYYADSVKGRFTISRDNAKNTVSLQMNSMKPEDTAVYSCNADTVWVPYRTYIPFDYWGQGTQVTVSS | low polyreactivity
QVQLVESGGGLVQAGGSLRLSCAAAGRIFGINALGWYRQAPGKERELVAAISWRSGSTYYADSVKGRFTISRDNAKNTVYLQMNSLKPEATAVYYCAARYFVRNYYQNDYWGQGTQVTVSS | low polyreactivity
QVQLVESGGGLVQAGGSLRLSCAAAGRSFGRNAMGWYRQAPGKERELVAAISTSSGSTYYADSVKGRFTISRDNAKNTVYLQMNSLKPEDTAGYYCAARDDSYRRYEYGYWGQGTQVTVSS | high polyreactivity
QVQLVESGGGLVQAGGSLRLSCAAAGRTFGDYDMGWYRQAPGKERELVAAITSDGTTYYADYVKGRFTISGDNAKNTVYLQMNSLKPEDTAVYYCAADYWYVSWYDYWGHGTQVTVSS | low polyreactivity
QVQLVESGGGLVQAGGSLRLSCAAAGSIFRINDMGWYRQATGKERELVAAITFSGGSTYADSVKGRFTISRDNAKNTVYLQMNSLKPEDTAVYYCNADGAYWTDYYLYDYWGHGTQVTVSS | low polyreactivity
QVQLVESGGGLVQAGGSLRLSCAACGFIFYYNAMGWYRQAHGKVRELVAAISSSAGSTYYADSVKGRFTISRDNAKNTVYLQMNSLKPEDTAVYDCAASRPPNTSNTGYGSWGQGTQVTVSS | low polyreactivity
QVQLVESGGGLVQAGGSLRLSCAACGFTFQYYAMGWYRQAPGKVRELVATITTSGGNTYYADSVKGRFTISRDNAKNTVYLQMNSLKPEDTAVYYCAARSYRASSRGYVYWGQGTQVTVSS | high polyreactivity
QVQLVESGGGLVQAGGSLRLSCAACGITFPTNMGWYRQAPGKERELVAAIRLSGGSTSYADSVKGRFTISRDNAKNSVYLQMTSLKPEDTAVSSCAAGGYPGGEDYWGQGTQVTVSS | low polyreactivity
QVQLVESGGGLVQAGGSLRLSCAACGLTITFYAMGWYRQAPGKERELVAAISRSGGSTYYADSVKGRFTISRDNAKNTVYLQMNSLKPEVTAVYYCAVVGGYYEFDYEGDYWGQGTQVTVSS | low polyreactivity
QVQLVESGGGLVQAGGSLRLSCAACGRIFDRNAMGWYRQAPGKERELVAAITRSGGRTYYADSVKGRFTISRDNAKNSVYLQMNSLKPEDTAVYYCNRGYPRSVVHYNSWGQGTQVTVSS | low polyreactivity
QVQLVESGGGLVQAGGSLRLSCAACGRILTYYAMGWYRQAPGKERELVAAISWRAGSTYYADSVKGRFTISRDNAKNTVYLQMNSLKPEDTAVYYCAAKPYYIPTRTYSHYNYWGQGTQVTVSS | high polyreactivity
QVQLVESGGGLVQAGGSLRLSCAACGRTFYNYAMGWYRQAPGKERELVAAITRGGSTYYADSVKGRFTISRDNAKNTVYLQMNSLKPEDTAVYYCNAVFPYEHEEYDYWGQGTQVTVSS | high polyreactivity
QVQLVESGGGLVQAGGSLRLSCAACGSIFYLNAMGWYRQAPGKERELVAAITNGGSTYADSVKGRFTISRDNAKNTVYLQMNSLKPEDTAVYYCATRSWELGDYWGQGTQVTVSS | low polyreactivity
QVQLVESGGGLVQAGGSLRLSCAACGSTFHWNTMVWYRQAPGKERELVAAITYSGGRTYYADSVKGRFTISRDNAKNTVYLQMNSLKPEDTAVYYCAARYWRGSVTSYYYWGQGTQVTVSS | high polyreactivity
QVQLVESGGGLVQAGGSLRLSCAACGSTFNGYTMGWYRQAPGKERELVAAISKSGGRTYYADSVKGRFTISRDNAKNTVYLQMNSLKPEDTAVYYCNKLTQSSYGWGQGTQVTVSS | high polyreactivity
QVQLVESGGGLVQAGGSLRLSCAACGSTFPGNAKGWYRQAPGKERELVAAISSSGGITYYADSVKGRFTISRDNAKNTVYLQMNSLIPEDTAVYYCSWGHGTQVTVSS | low polyreactivity
QVQLVESGGGLVQAGGSLRLSCAACGSTFRYNTMGWYRQATGTEREVVAAISSAATTNYADSVKGRFTISRDNAKNTVYLQLNSLNPEDTALYYCARGYSWSVGYPRVQDMDYWGQGTQVTVSS | high polyreactivity
QVQLVESGGGLVQAGGSLRLSCAAFGRIFQYYAMGWYRQAPGKERELVAAITRSGGSTYYADSVKGRFTISRDNAKNTVYLQMNSLKPEDTAVYYCAAYSRYTVREGYDYWGQGTQVTVSS | high polyreactivity
QVQLVESGGGLVQAGGSLRLSCAAPGNTFQYYAMGWSRQAPGKEREFVAAISRRGGSTYYADSVKGRFTISRDNAKNTVYLQMNSLKPEDTAVYYCNKVIFLSQSSYSFLYAYDYWGQGTQVTVSS | high polyreactivity
QVQLVESGGGLVQAGGSLRLSCAAPGSIFYQNAMGGYRQAPGKERELVAAISRSGGSTYYADSVKGRFTISRDNAKNTVYLQMNSLKPEDTAVYYCAARISRQRSYSRDYWGQGTQVTVSS | high polyreactivity
